Assay results from the supplement of paper PMC11136658.

System: peptide library, one residue held at a place counted from the Y acceptor
Assay: relative phosphorylation of the sub-library (ratio to the mean residue at this position); higher = residue favoured
Procedure, shortened: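 Purified recombinant kinases were incubated for 90 min in 384-well plates with biotinylated Tyr-centred peptide library mixtures, each fixing one residue at one position from −5 to +5, plus 50 μM ATP with γ-32P-ATP. Peptides were captured on streptavidin membranes, rinsed and quantified by phosphorimaging and ImageQuant. Intensities were normalized per position by the sum of the 18 (or 16, Ser/Thr-free library) randomized residues and multiplied by that number. Values give phosphorylation relative to the mean randomized residue.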

Sequence of FGFR2, construct: aa285-end, human (P21802 285-821, looked up): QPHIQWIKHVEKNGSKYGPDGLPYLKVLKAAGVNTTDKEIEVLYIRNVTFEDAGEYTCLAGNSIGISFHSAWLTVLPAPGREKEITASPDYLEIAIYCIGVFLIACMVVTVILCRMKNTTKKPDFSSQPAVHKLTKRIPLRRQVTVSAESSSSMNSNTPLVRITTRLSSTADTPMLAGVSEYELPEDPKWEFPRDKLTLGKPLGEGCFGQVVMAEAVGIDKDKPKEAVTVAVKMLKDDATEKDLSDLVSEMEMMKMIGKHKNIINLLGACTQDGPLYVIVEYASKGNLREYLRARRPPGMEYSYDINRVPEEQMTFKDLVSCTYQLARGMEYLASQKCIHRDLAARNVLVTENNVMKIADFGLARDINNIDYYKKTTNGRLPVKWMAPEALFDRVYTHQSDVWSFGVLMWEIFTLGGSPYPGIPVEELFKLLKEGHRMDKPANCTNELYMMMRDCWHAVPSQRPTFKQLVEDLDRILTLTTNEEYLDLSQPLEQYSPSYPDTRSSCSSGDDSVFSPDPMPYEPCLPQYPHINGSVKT
Sequence of EPHB1, construct: aa613-881, human (P54762 613-881, looked up): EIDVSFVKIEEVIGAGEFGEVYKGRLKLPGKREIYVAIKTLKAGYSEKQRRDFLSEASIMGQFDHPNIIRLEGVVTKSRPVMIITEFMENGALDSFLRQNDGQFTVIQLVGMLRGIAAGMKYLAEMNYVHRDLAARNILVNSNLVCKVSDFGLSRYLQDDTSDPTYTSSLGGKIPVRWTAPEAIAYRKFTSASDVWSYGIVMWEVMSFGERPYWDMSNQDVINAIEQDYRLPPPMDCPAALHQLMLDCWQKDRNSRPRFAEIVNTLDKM

EPHB1, construct: aa613-881, human (from UniProt P54762)
relative phosphorylation
Settings | at +1 | at +2 | at +3 | at +4 | at +5 | at -1 | at -2 | at -3 | at -4 | at -5
A fixed | 1.86 | 0.98 | 0.818 | 0.902 | 1.1 | 0.664 | 1.16 | 0.857 | 0.999 | 0.906
D fixed | 0.907 | 1.01 | 0.511 | 1.08 | 1.13 | 2.22 | 1.09 | 1.22 | 1.23 | 1.15
E fixed | 2.33 | 1.18 | 0.427 | 1.04 | 1.06 | 1.2 | 1.27 | 1.34 | 1.26 | 1.01
F fixed | 0.676 | 1.14 | 1.37 | 1.06 | 1.13 | 1.19 | 0.677 | 1.31 | 1.19 | 1.07
G fixed | 0.571 | 0.414 | 0.575 | 1.03 | 1.05 | 0.223 | 1.23 | 0.898 | 1.15 | 0.979
H fixed | 0.566 | 0.769 | 1.39 | 1.18 | 0.938 | 0.762 | 0.888 | 1.05 | 0.872 | 0.934
I fixed | 1.67 | 1.36 | 2.18 | 0.773 | 0.815 | 2.09 | 0.872 | 0.944 | 0.907 | 0.956
K fixed | 0.212 | 0.585 | 0.29 | 0.744 | 0.784 | 0.264 | 0.946 | 0.631 | 0.931 | 1.05
L fixed | 0.823 | 1.04 | 1.37 | 0.828 | 1.08 | 1.95 | 0.914 | 1.02 | 1.07 | 1.11
M fixed | 1.48 | 0.935 | 1.19 | 1.07 | 1.01 | 0.95 | 0.689 | 0.874 | 0.872 | 0.926
N fixed | 0.383 | 0.951 | 0.731 | 0.806 | 0.856 | 1.81 | 1.05 | 1.03 | 0.844 | 1.13
P fixed | 0.195 | 0.858 | 0.899 | 1.29 | 1.49 | 0.436 | 1.33 | 1.2 | 1.21 | 0.947
Q fixed | 1.22 | 0.982 | 0.849 | 1.07 | 0.94 | 0.423 | 1.13 | 0.835 | 1.19 | 1.13
R fixed | 0.252 | 0.768 | 0.419 | 0.835 | 0.782 | 0.29 | 0.905 | 0.672 | 0.9 | 1.01
S fixed | 0.934 | 0.981 | 0.691 | 0.94 | 0.972 | 0.519 | 1.3 | 0.923 | 0.722 | 0.841
T fixed | 0.868 | 1.02 | 0.848 | 0.939 | 0.938 | 0.968 | 0.917 | 0.844 | 0.667 | 0.757
V fixed | 1.83 | 1.56 | 1.95 | 0.911 | 0.876 | 1.24 | 0.912 | 0.928 | 0.854 | 0.949
W fixed | 1.22 | 1.45 | 1.49 | 1.5 | 1.05 | 0.811 | 0.714 | 1.42 | 1.14 | 1.15
pThr fixed | 1.9 | 1.95 | 0.439 | 1.03 | 0.655 | 1.58 | 0.851 | 0.856 | 0.945 | 1.02
pTyr fixed | 1.56 | 3.38 | 0.718 | 1.1 | 0.883 | 1.69 | 0.936 | 1.13 | 1.12 | 1.25

FGFR2, construct: aa285-end, human (from UniProt P21802)
relative phosphorylation
Settings | at +1 | at +2 | at +3 | at +4 | at +5 | at -1 | at -2 | at -3 | at -4 | at -5
A fixed | 0.967 | 0.586 | 0.554 | 0.848 | 1 | 0.772 | 0.949 | 0.935 | 1.13 | 0.929
D fixed | 0.362 | 0.991 | 0.671 | 0.93 | 1.01 | 2.28 | 1.18 | 1.26 | 1 | 1.09
E fixed | 0.774 | 1.54 | 0.515 | 1.11 | 0.972 | 1.41 | 1.42 | 1.53 | 1.14 | 0.89
F fixed | 1.69 | 1.57 | 1.53 | 1.06 | 0.992 | 0.988 | 0.642 | 0.852 | 0.949 | 0.962
G fixed | 0.345 | 0.353 | 0.495 | 0.981 | 1.32 | 0.506 | 1.09 | 1.09 | 1.2 | 1.27
H fixed | 1.84 | 0.971 | 0.988 | 1.14 | 0.943 | 1.51 | 1.28 | 1.16 | 1.2 | 1.21
I fixed | 1.33 | 0.926 | 1.89 | 0.883 | 0.836 | 1.23 | 0.679 | 0.697 | 0.773 | 0.806
K fixed | 0.55 | 0.524 | 0.303 | 0.868 | 0.819 | 0.5 | 1.19 | 1.01 | 1.13 | 1.33
L fixed | 0.929 | 1.24 | 1.96 | 0.885 | 0.927 | 0.94 | 0.78 | 0.685 | 0.81 | 0.824
M fixed | 1.06 | 1.41 | 1.87 | 1.01 | 0.979 | 0.689 | 0.674 | 0.774 | 0.812 | 0.842
N fixed | 0.472 | 1.01 | 0.488 | 0.865 | 0.987 | 1.3 | 1.14 | 1.28 | 0.939 | 1.05
P fixed | 1.11 | 0.612 | 0.666 | 1.16 | 1.47 | 0.815 | 1.08 | 0.924 | 1.17 | 1.01
Q fixed | 0.953 | 0.78 | 0.776 | 0.97 | 0.832 | 1.04 | 1.12 | 0.892 | 1.03 | 0.952
R fixed | 0.706 | 0.758 | 0.551 | 1.39 | 0.884 | 0.495 | 1.24 | 1.12 | 1.26 | 1.34
S fixed | 0.733 | 0.665 | 0.545 | 0.966 | 1.02 | 0.681 | 1.14 | 1.13 | 0.854 | 0.939
T fixed | 0.901 | 0.827 | 0.737 | 0.918 | 0.983 | 0.805 | 0.939 | 1.08 | 0.721 | 0.883
V fixed | 1.55 | 1.02 | 1.62 | 0.872 | 1.05 | 0.97 | 0.752 | 0.662 | 0.757 | 0.714
W fixed | 1.72 | 2.22 | 1.84 | 1.14 | 0.977 | 1.08 | 0.697 | 0.912 | 1.12 | 0.969
pThr fixed | 0.729 | 1.43 | 0.766 | 0.731 | 0.782 | 1.25 | 1 | 1.1 | 0.883 | 0.849
pTyr fixed | 2.75 | 2.82 | 0.616 | 1.15 | 0.835 | 2.48 | 1.25 | 1.2 | 1.1 | 0.913
